Assay results: IntAct's records for PubMed 15205937

B1: Cysteine and glycine-rich protein 3 (Homo sapiens), P50461 (parent)
chain: MPNWGGGAKCGACEKTVYHAEEIQCNGRSFHKTCFHCMACRKALDSTTVAAHESEIYCKVCYGRRYGPKGIGYGQGAGCLSTDTGEHLGLQFQQSPKPARSVTTSNPSKFTAKFGESEKCPRCGKSVYAAEKVMGGGKPWHKTCFRCAICGKSLESTNVTDKDGELYCKVCYAKNFGPTGIGFGGLTQQVEKKE

Variants of: B1
Conditions: with nrap_human NRAP

Row | Variant | effect of a mutation on the interaction
1 | C58G | disrupting interaction

Variants of: B1
Conditions: with nrap_human NRAP
Remark: another data set of the same source

Row | Variant | effect of a mutation on the interaction
2 | C58G | decreasing interaction

Variants of: B1
Conditions: with actn2_human ACTN2, P35609
Chain of actn2_human ACTN2, P35609 (P35609 whole entry): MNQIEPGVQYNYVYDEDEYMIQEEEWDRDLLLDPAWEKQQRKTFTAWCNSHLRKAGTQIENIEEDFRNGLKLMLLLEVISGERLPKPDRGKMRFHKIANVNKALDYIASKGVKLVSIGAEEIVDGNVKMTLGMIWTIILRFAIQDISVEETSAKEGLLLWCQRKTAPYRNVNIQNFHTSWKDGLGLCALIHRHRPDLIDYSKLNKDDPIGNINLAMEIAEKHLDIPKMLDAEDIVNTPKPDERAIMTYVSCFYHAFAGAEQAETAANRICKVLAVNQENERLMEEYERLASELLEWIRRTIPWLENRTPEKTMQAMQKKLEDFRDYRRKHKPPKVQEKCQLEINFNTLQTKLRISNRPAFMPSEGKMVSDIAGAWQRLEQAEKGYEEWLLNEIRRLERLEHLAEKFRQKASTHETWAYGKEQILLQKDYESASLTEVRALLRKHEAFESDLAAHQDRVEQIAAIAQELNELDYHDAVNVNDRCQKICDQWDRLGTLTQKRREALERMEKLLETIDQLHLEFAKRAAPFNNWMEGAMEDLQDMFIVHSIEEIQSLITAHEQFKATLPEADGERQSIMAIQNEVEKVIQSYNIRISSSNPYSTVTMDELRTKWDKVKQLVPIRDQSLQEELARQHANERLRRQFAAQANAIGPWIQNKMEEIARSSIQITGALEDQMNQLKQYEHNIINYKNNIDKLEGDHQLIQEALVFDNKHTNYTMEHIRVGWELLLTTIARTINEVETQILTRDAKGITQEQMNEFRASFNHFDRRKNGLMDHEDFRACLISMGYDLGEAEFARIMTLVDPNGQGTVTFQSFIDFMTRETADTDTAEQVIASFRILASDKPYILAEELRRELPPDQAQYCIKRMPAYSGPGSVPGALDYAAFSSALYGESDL

Row | Variant | effect of a mutation on the interaction
3 | C58G | decreasing interaction
